Holding throughout (test): SPR, KD relative to WT C2;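 note: biacore SPR at 37 °C, anti-C2 mAbs captured via immobilised goat anti-human IgG, C2 alanine or serine surface mutants as analytes, 1:1 model fitted, double-referenced sensograms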
The target in one test is T1, human C2 N703A (human, UniProt P06681 21-752).
T1 sequence: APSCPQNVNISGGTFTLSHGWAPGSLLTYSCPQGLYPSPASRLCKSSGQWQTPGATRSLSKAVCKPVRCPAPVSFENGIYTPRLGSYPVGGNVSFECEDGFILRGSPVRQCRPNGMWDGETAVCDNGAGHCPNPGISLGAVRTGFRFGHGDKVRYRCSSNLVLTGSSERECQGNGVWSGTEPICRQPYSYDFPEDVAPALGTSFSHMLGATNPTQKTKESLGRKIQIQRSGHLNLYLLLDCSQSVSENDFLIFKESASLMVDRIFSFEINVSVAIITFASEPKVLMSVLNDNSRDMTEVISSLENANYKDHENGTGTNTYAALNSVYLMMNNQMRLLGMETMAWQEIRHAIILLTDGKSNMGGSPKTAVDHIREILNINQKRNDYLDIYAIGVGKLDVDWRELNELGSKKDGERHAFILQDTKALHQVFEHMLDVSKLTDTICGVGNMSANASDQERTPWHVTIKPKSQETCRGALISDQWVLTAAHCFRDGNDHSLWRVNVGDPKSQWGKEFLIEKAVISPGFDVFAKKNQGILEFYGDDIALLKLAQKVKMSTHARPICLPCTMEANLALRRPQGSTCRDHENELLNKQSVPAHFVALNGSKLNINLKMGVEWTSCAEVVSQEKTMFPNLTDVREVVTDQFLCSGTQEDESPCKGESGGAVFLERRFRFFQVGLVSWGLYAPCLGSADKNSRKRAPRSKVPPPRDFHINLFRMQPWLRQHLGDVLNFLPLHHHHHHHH

The target in another test is T2, human C2 S278A (human, UniProt P06681 21-752).
T2 sequence: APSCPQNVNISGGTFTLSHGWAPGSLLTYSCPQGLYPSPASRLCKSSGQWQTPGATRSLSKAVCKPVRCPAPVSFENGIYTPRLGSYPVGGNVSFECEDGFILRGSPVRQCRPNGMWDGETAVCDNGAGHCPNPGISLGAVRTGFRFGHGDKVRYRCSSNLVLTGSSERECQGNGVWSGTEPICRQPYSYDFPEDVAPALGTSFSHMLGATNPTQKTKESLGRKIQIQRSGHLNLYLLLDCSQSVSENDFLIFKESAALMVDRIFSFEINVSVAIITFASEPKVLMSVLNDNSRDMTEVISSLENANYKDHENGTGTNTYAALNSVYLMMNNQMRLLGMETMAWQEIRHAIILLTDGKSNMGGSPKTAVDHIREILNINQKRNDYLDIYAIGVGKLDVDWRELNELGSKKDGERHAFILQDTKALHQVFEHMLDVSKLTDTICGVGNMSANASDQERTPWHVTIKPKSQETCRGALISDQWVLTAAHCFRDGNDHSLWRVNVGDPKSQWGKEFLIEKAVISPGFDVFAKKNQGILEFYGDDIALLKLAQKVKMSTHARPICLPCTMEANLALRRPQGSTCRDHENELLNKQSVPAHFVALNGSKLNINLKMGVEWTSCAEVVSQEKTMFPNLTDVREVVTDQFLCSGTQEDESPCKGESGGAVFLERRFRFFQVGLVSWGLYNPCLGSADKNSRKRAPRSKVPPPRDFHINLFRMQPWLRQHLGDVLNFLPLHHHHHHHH

The next test addresses T3, human C2 T442A (human, UniProt P06681 21-752).
T3 sequence: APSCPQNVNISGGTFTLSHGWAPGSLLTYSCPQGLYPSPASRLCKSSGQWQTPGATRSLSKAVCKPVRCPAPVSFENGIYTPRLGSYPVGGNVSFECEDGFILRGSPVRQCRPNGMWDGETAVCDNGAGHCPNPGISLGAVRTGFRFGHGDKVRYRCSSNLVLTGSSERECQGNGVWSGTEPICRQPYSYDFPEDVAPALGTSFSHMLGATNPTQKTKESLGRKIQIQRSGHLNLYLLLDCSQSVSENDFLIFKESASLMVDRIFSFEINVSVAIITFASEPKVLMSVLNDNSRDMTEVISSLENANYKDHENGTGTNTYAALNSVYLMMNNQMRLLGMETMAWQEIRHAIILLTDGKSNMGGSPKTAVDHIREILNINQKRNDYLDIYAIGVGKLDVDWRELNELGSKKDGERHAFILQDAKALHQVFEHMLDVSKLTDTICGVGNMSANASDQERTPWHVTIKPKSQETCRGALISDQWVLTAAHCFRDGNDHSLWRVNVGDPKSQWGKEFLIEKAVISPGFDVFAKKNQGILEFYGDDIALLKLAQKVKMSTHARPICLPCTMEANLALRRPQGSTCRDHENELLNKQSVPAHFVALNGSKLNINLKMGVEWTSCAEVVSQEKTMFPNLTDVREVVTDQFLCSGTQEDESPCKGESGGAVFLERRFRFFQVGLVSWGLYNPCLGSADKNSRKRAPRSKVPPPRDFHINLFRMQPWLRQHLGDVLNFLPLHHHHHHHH

The target of the next test is T4, human C2 E490A (human, UniProt P06681 21-752).
T4 sequence: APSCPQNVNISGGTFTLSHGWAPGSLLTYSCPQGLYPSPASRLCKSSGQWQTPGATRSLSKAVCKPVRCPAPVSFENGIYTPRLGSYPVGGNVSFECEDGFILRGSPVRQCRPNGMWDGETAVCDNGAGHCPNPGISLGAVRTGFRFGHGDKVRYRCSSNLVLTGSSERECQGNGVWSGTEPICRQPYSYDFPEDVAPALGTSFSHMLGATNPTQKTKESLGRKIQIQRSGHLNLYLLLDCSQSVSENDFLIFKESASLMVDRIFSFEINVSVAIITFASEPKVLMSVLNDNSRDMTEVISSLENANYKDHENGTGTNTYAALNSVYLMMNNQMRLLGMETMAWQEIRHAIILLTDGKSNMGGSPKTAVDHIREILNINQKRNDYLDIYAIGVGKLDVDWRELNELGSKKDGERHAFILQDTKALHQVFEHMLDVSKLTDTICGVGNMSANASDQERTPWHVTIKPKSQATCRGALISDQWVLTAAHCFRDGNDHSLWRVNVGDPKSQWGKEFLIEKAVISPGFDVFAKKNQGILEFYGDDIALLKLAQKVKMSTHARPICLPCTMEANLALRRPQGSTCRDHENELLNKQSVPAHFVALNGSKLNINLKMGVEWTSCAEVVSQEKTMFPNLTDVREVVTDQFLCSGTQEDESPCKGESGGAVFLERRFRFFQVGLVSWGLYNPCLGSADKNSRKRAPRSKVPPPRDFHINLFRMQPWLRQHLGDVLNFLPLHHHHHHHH

B1: RF16-226 (antibody, human IgG4 S228P, lambda)
heavy: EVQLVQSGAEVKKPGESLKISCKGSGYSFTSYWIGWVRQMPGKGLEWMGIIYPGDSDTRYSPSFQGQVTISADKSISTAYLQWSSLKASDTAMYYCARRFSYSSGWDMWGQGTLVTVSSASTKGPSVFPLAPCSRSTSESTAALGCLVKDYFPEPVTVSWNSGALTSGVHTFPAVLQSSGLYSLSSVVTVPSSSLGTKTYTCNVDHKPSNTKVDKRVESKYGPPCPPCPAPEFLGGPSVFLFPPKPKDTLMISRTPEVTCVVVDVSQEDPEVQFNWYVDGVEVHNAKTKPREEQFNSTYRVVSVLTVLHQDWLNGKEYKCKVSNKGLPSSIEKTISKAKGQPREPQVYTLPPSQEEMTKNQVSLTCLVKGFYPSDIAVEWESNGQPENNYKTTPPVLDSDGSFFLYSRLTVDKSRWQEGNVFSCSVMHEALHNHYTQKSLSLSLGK
light: SYELTQPPSVSVSPGQTARITCSGDALTSKYVAWYQQKSGLAPLLVIYEDTRRPSGIPAKFSGSSSGSVATLTISGAHGDDEADYYCYSTDASGHQRVFGGGTKLTVLSQPKAAPSVTLFPPSSEELQANKATLVCLISDFYPGAVTVAWKADGSPVKAGVETTKPSKQSNNKYAASSYLSLTPEQWKSHRSYSCQVTHEGSTVEKTVAPTECS
notes: pH-dependent anti-C2 antibody from a phage display library; also called WT
Consider B1, for which the Fold diff with human C2 N703A was determined as 29 fold; with human C2 S278A, 1 fold; in the test with human C2 T442A, 2 fold; with human C2 E490A it was 2 fold.
